How the values were obtained:
[1] = target: MBP-5-HT3A-ICD fusion protein (cytoplasmic domain of the mouse 5-HT3A receptor fused to the C-terminus of maltose binding protein) (mouse); assay: SEC; Superdex 200 10/300 GL, 20 mM HEPES, 150 mM NaCl, 0.02% NaN3, pH 7.4; weight from calibration with standard proteins
[2] = target: MBP-5-HT3A-ICD fusion protein (cytoplasmic domain of the mouse 5-HT3A receptor fused to the C-terminus of maltose binding protein) (mouse); assay: SEC-MALS; Superdex 200 HR 10/300 GL, 20 mM HEPES, 150 mM NaCl, 5 mM maltose, 0.01% NaN3, pH 7.4, ambient temperature, 0.1-1.0 mg protein loaded
[3] = target: MBP-5-HT3A-ICD fusion protein (cytoplasmic domain of the mouse 5-HT3A receptor fused to the C-terminus of maltose binding protein) (mouse); assay: cross-linking; glutaraldehyde by vapor diffusion at 30 °C, 0.5 μg purified protein in buffer B; resolved by SDS-PAGE with Western blot (anti-MBP) or denaturing capillary gel electrophoresis

- stoichiometry N [1]: 5
- stoichiometry N [2]: 5
- stoichiometry N [3]: 5
Substance: MBP-5-HT3A-ICD fusion protein (cytoplasmic domain of the mouse 5-HT3A receptor fused to the C-terminus of maltose binding protein) (domain or fragment)
